# Data taken from US20190038796A1.
# Target: EGF-MMP (recombinant epidermal growth factor with N-terminal PLP reactive site AKT, polyhistidine tag and MMP cleavage site VPLSLYSG)
# Experiment: cell-based or functional assay
# Chain of EGF-MMP (recombinant epidermal growth factor with N-terminal PLP reactive site AKT, polyhistidine tag and MMP cleavage site VPLSLYSG) (chain, as listed by the source limits assumed): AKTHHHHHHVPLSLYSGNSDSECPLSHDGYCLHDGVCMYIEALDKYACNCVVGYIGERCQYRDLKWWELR
substance,measurement,value
"Recombinant, human pro-MMP-9 expressed in CHO cells, activated with amino-phenyl mercuric acetate (APMA) (from UniProt P14780 20-707) (enzyme)",EGF released from the conjugated PCL fiber mat after 4 hours of incubation with MMP-9 (ELISA),20 ng/mg
same,EGF released from the conjugated PCL fiber mat over the first 10 minutes after the enzyme was added (ELISA) (ng EGF/mg PCL),11
